Experimental data: US20110002929A1

Molecular target: human RANK-L (human) (UniProt O14788)
Assay: cell-based or functional assay

human RANK-L (human), sequence (O14788 140-317 limits assumed): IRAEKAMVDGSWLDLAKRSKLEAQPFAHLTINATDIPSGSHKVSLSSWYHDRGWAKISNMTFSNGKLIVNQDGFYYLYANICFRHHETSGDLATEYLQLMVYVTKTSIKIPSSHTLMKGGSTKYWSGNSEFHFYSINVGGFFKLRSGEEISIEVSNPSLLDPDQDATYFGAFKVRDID

- RANK-L induced NF-kappaB activation (luciferase reporter, HEK293T cells), IC50: 6.03 nM
Substance: osteoprotegerin (from UniProt O00300 22-401) (receptor)
